# Measurements taken from patent publication US20240197828A1, “Chimeric molecule to treat sepsis and other inflammatory conditions” (THE FEINSTEIN INSTITUTES FOR MEDICAL RESEARCH, priority 2022, published 2024).
# B1: milk fat globule-epidermal growth factor—factor VIII (protein, listed as Mus musculus)
# chain: MQVSRVLAALCGMLLCASGLFAASGDFCDSSLCLNGGTCLTGQDNDIYCLCPEGFTGLVCNETERGPCSPNPCYNDAKCLVTLDTQRGDIFTEYICQCPVGYSGIHCETETNYYNLDGEYMFTTAVPNTAVPTPAPTPDLSNNLASRCSTQLGMEGGAIADSQISASSVYMGFMGLQRWGPELARLYRTGIVNAWTASNYDSKPWIQVNLLRKMRVSGVMTQGASRAGRAEYLKTFKVAYSLDGRKFEFIQDESGGDKEFLGNLDNNSLKVNMFNPTLEAQYIKLYPVSCHRGCTLRFELLGCELHGCSEPLGLKNNTIPDSQMSASSSYKTWNLRAFGWYPHLGRLDNQGKINAWTAQSNSAKEWLQVDLGTQRQVTGIITQGARDFGHIQYVASYKVAHSDDGVQWTVYEEQGSSKVFQGNLDNNSHKKNIFEKPFMARYVRVLPVSWHNRITLRLELLGC
# Columns and labels:
# RAW264.7 macrophages = assay: Intracellular uptake of FITC-rmCIRP by macrophages (flow cytometry, confocal microscopy); type: cell-based, mouse
# Protocol: FIG. 3. Effects of MOP peptides MOP-3, MOP-8 and MOP-14 on eCIRP. Flow cytometry experiment whereby RAW264.7 macrophages were treated for 1 hour according to respective group: PBS (volume-equivalent), FITC-rmCIRP (1 μg/mL), or a mixture of FITC-rmCIRP (1 μg/mL) with each respective peptide (10 μg/mL) after co-incubating for 30 minutes. Intracellular FITC-rmCIRP was analyzed by flow cytometry. Median fluorescence intensity (MFI) reported as percentage relative to PBS-treated RAW264.7 cells. Data from two independent experiments are expressed as mean±SEM and compared by one-way ANOVA and SNK test. *p<0.05 vs. PBS, #p<0.05 vs. eCIRP.
# Computational modeling was used to determine the likely domain of MFG-E8's binding to eCIRP. The known amino acid (AA) sequence of this domain was used to develop and test potential therapeutic peptides. An MFG-E8 derived oligopeptide, MOP3, was developed based on 15 AA from MFG-E8 discoidin 2 domain (mimicking MFG-E8's C-terminal) and tagged with the 3 AA, RGD, (mimicking MFG-E8's binding capacity for the integrin receptor at the N-terminal). Binding of MOP3 to CIRP was quantified using Surface Plasmon Resonance (SPR) analysis. Macrophages (RAW264.7 cells) were treated with FITC-recombinant mouse (rm)-CIRP or co-incubated MOP3 and FITC-rmCIRP with and without a. Br-integrin Ab. After 1 h, cells were fixed and analyzed for intracellular FITC-rmCIRP by flow cytometry. Macrophages were stimulated with rmCIRP or co-incubated mixture of MOP3 and rmCIRP. After 4 h, cell culture supernatants were analyzed for inflammatory cytokine, TNFα.
# Mouse macrophage cell line, RAW264.7 cells were obtained from American Type Culture Collection (ATCC) and cultured in DMEM media with 10% FBS, 1% penicillin and streptomycin, and 1% glutamine. Cells were kept in 37° C. incubator under humidified conditions containing 5% CO2.
# rmCIRP was labeled using a FITC Conjugation Kit (Abcam, ab188285), and rmMFG-E8 was labeled using Alexa Fluor Conjugation Kit (Abcam, ab269821), both according to respective manufacturer's instructions.
# In order to visualize cellular uptake, we initially utilized TRITC-BSA as an internal probe, as BSA is taken up into cells primarily by endocytosis and retained intracellularly after fixation (27, 28). For further visualization of intracellular localization, we utilized LAMP1 primary antibody (as it is distributed among endolysosomal organelles and serves as a marker for lysosomal compartments) (29), and utilized lysotracker in live cell experiments (as it allows for imaging of dynamics of lysosome vesicle movements) (30). […] Images were quantified and analyzed using Image J, FIJI.(31) Flow cytometry. […]
# RAW264.7 cells = assay: eCIRP-induced cytokine release in RAW264.7 cells (ELISA of supernatants); type: cell-based, mouse; conditions: RAW264.7, rmCIRP 1 μg/mL, 4 hours
# Protocol: FIG. 2. Effects of MOP peptides on TNFα levels. RAW264.7 macrophages were cultured and treated with either volume-equivalent PBS, recombinant murine (rm) CIRP (eCIRP; 1 μg/mL), or rmCIRP with each respective peptide (10 μg/mL). After 4 hours, cell supernatants were assessed for TNFα levels by ELISA. Experiments were performed 3 times, and all data were used for analysis. Data are expressed as mean±SEM and compared by one-way ANOVA and SNK test. *p<0.05 vs. PBS, #p<0.05 vs. eCIRP.
# FIG. 4. eCIRP-induced inflammation is attenuated by MOP3. RAW264.7 cells were treated according to respective groups: PBS (volume equivalent), rmCIRP (1 μg/mL), or rmCIRP with MOP3 at increasing doses. After 4 hours, cell supernatants were analyzed for TNFα levels by ELISA. […] Data are expressed as mean #SEM and compared by one-way ANOVA and SNK test. *p<0.05 vs. PBS, #p<0.05 vs. eCIRP.
# Computational modeling was used to determine the likely domain of MFG-E8's binding to eCIRP. […] Binding of MOP3 to CIRP was quantified using Surface Plasmon Resonance (SPR) analysis. […] After 1 h, cells were fixed and analyzed for intracellular FITC-rmCIRP by flow cytometry. […] After 4 h, cell culture supernatants were analyzed for inflammatory cytokine, TNFα. […]
# The mouse macrophage cell culture supernatants were analyzed for cytokine levels using ELISA kits (BD Biosciences, CA). […]
molecule,measurement,setting,value
B1,FITC-eCIRP uptake (confocal fluorescence microscopy),"RAW264.7 macrophages; RAW264.7, 4 hours, vs FITC-eCIRP alone",marked increase of FITC-eCIRP uptake
same,intracellular FITC-rmCIRP uptake (flow cytometry),"RAW264.7 macrophages; RAW264.7, FITC-rmCIRP 1 μg/mL co-incubated with test substance (peptide 10 μg/mL), 1 hour, vs FITC-rmCIRP alone",enhanced internalization of FITC-eCIRP
same,intracellular FITC-eCIRP with αvβ3-integrin neutralizing antibody (confocal fluorescence microscopy),"RAW264.7 macrophages; RAW264.7, vs IgG isotype control",remarkably reduced
same,intracellular FITC-rmCIRP uptake with αvβ3-integrin blocking antibody (flow cytometry),"RAW264.7 macrophages; RAW264.7, αvβ3-integrin antibody 0.5 μg/mL",significantly reduced
same,IL-6 levels in cell supernatants,RAW264.7 cells; vs eCIRP alone,attenuated these levels in a dose-dependent manner
same,TNFα levels in cell supernatants,RAW264.7 cells; vs rmCIRP alone,attenuated these levels in a dose-dependent manner
